The text below walks through data of US20220396626A1 (GUANGZHOU BIO GENE TECHNOLOGY, published 2022).

Assay [1] has as its target T1, human CLL1 on the surface of transfected cells (HEK293-CLL1; HEK-293T membrane proteome array) (human, UniProt Q5QGZ9 1-265).
T1 construct: whole, on cells; also called HEK293-CLL1 cells; CLL1 target antigen
T1 sequence (looked up): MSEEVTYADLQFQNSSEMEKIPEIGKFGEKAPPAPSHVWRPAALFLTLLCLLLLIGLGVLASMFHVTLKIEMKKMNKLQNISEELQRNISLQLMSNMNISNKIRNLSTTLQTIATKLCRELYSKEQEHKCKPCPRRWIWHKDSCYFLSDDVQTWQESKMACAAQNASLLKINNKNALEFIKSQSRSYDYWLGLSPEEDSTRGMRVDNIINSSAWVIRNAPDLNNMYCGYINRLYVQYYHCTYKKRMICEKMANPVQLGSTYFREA
Description: flow cytometry on HEK293 cells overexpressing CLL1. From the text:
In the present example, flow cytometry was used to detect the binding of antibodies hz27H4H1L1, hz27H4H1L2 and CLL1 on HEK293 cells.
On the technique in general: A flow cytometer gives signals particle by particle.

The target of assay [2] is T2, human CLL1 ECD-His (human CLL1 extracellular domain with His tag) (human, UniProt Q5QGZ9 65-265).
T2 construct: also called antigen human CLL1 ECD-His; antigen CLL1; not shown: His tag
T2 sequence: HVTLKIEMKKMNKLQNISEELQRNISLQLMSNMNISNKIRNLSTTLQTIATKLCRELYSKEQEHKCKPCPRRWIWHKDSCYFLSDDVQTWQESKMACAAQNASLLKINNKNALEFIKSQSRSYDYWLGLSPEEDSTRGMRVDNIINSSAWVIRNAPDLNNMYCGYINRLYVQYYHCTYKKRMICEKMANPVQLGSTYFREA
Description: BLI (ForteBio), antibody on AHC sensor, 60 nM human CLL1 ECD-His, 1:1 model. As for the experimental part: In short, 4 μg/mL antibody was loaded on the anti-human IgG capture (AHC) biosensor, the sensor was equilibrated offline for 30 min in the assay buffer, and the online monitoring was used for 60 s to establish the baseline; the antibody-loaded sensor was incubated with the 60 nM antigen human CLL1 ECD-His for 3 min, then transferred to the assay buffer, and the dissociation rate was measured after 3 min; the kinetic analysis was performed using a 1:1 binding model.
(Biolayer interferometry detects binding as a change in optical thickness at a sensor tip.)

The target in assay [3] is T2, human CLL1 ECD-His (human CLL1 …). Description: BLI (ForteBio), antibody on AHC sensor, 100 nM human CLL1 ECD-His, 1:1 model. Here is the method:
In short, the antibody was loaded on the anti-human IgG capture (AHC) biosensor, the sensor was equilibrated in the assay buffer for 30 min offline, and monitored online for 60 s to establish the baseline; the antibody-loaded sensor was incubated with the 100 nM antigen human CLL1 ECD-His for 5 min, then transferred to the assay buffer, and the dissociation rate was measured after 5 min; the kinetic analysis was carried out using a 1:1 combination model.

The target of assay [4] is T1, human CLL1 on the surface of …. Description: flow cytometry on HEK293 cells overexpressing CLL1, FITC goat anti-human IgG-Fc secondary; controls on the sheet: Cells + Secondary Antibody 1029.8, Blank 1041.3. As for the experimental part: In the present example, flow cytometry was used to detect the binding of antibodies ch23D7, ch27H4, and ch19C1 to CLL1 on HEK293 cells. The steps are as follows:
5×10⁵ HEK293 cells overexpressing CLL1 were resuspended in PBS+5% BSA and incubated at 4° C. for 30 min; antibodies of different concentrations (1 μg/mL˜0.01 μg/mL, 10-fold dilutions) were added and incubated at 4° C. for 60 min; after centrifugation and washing, a PBS+5% BSA solution containing FITC-labeled goat anti-human IgG-Fc secondary antibody (1:200, sigma, F9512) was added, and incubated on ice for 30 min in the dark; the cells were washed 3 times and then analyzed by flow cytometry;

For assay [5], the target named is T3, Recombinant Cynomolgus Monkey CLL-1 Protein (his), Acro CLA-H5263 (cynomolgus monkey, UniProt A0A2K5WXQ4 71-271).
T3 construct: also called Analyte 2
T3 sequence: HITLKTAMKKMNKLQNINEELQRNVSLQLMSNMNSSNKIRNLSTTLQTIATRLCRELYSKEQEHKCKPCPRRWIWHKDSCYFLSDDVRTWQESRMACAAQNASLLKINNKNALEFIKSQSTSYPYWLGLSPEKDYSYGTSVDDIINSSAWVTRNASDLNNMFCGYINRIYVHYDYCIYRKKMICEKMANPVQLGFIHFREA
Description: SPR, antibody captured on Protein A chip, cynomolgus CLL-1 as analyte. (Surface plasmon resonance follows binding to a sensor surface in real time, without labels.)

Assay [6] has as its target T4, Recombinant Human CLL-1 Protein (his), Acro CLA-H5245 (human, UniProt Q5QGZ9 65-265).
T4 construct: also called Analyte 1; not shown: his tag
T4 sequence (looked up): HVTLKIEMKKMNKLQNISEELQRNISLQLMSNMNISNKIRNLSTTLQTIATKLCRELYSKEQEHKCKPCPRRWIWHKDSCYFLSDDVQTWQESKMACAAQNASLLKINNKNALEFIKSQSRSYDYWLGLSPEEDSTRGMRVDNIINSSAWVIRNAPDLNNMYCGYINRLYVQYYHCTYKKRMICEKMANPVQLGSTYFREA
Description: SPR, antibody captured on Protein A chip, recombinant human CLL-1 as analyte 3.125-50 nM, 1:1 model.

B1: chimeric antibody ch27H4 (antibody, V domains shown)
VH: EVQLQQSGPELVKPGASVKISCKASGYSFTGYHMHWVKQSHVKSLEWIGRINPYNGAASHNQKFKDKATLTVDKSSSTAYMELHSLTSEDSAVYYCARGWDYDGGYYAMDYWGQGTSVTVSS
VL: DIVMSQSPSSLAVSVGEKVTMSCKSSQSLLYSDNQKNYLAWYQQKPGQSPKLLIYWASTRESGVPDRFTGSGSGTDFTLTISSVKAEDLAVYYCQQYYTYPYTFGGGTKLEIK
notes: also called parent antibody
For orientation: EC50 means the concentration needed to bring the measured effect to its halfway point. For orientation: Kd means the free concentration of one partner at which half of the binding sites on the other are occupied at equilibrium, for simple one-to-one binding. The koff is the rate constant with which the complex falls apart. As usually defined, the kon is the second-order rate constant of association. B1 yielded an EC50 in assay [1] of 0.358 µg/mL. In assay [2], this molecule showed a Kd of 3.88 nM, a Response of 0.597, a koff of 0.00124 s⁻¹ and a kon of 320000 M⁻¹ s⁻¹. In addition, in assay [3], the Kd was found to be 3.83 nM, the Response stood at 0.634, the koff is 0.00101 s⁻¹ and the kon was 265000 M⁻¹ s⁻¹. Moreover, in assay [4], the “MFI at 0.01ug/ml” value was 3510, the “MFI at 0.1ug/ml” value was 25200 and the “MFI at 1ug/ml” value worked out at 163000.

B2: anti-human CLL-1 control antibody 1075.7 (antibody)
scFv: ENVLTQSPAIMSASPGEKVTMTCRASSNVISSYVHWYQQRSGASPKLWIYSTSNLASGVPARFSGSGSGTSYSLTISSVEAEDAATYYCQQYSGYPLTFGAGTKLELGGGGSGGGGSGGGGSDIQLQESGPGLVKPSQSLSLTCSVTGYSITSAYYWNWIRQFPGNKLEWMGYISYDGRNNYNPSLKNRISITRDTSKNQFFLKLNSVTTEDTATYYCAKEGDYDVGNYYAMDYWGQGTSVTVSS
notes: it was captured by anti-human IgG sensors and detected with anti-human IgG-Fc, so a human Fc was present; also called ch1075.7
In assay [1], B2 registered an EC50 of 0.245 µg/mL. In addition, in assay [2], the affinity, expressed as Kd, was 6.76 nM; the Response was determined as 0.219; the koff was found to be 0.000997 s⁻¹; the kon was found to be 148000 M⁻¹ s⁻¹. In addition, in assay [3], the Kd was 0.414 nM, the Response amounted to 0.236, the dissociation rate constant (koff) was determined as 4.48e-05 s⁻¹ and the kon stood at 108000 M⁻¹ s⁻¹. For the same molecule, in assay [4], the “MFI at 0.01ug/ml” value is 4580, the “MFI at 0.1ug/ml” value came to 35600 and the “MFI at 1ug/ml” value is 222000.

B3: humanized antibody hz27H4H1L1 (antibody, V domains shown)
VH: EVQLVQSGAEVKKPGASVKVSCKASGYTFTGYHMHWVRQAPGQRLEWMGRINPYNGAASHNQKFKDRVTITRDTSASTAYMELSSLRSEDTAVYYCARGWDYDGGYYAMDYWGQGTLVTVSS
VL: DIQMTQSPSSLSASVGDRVTITCKSSQSLLYSDNQKNYLAWYQQKPGKAPKLLIYWASTRESGVPSRFSGSGSGTDFTLTISSLQPEDFATYYCQQYYTYPYTFGQGTKLEIK
notes: Heavy chain variable region hz27H4H1 with light chain variable region hz27H4L1; also called h27H4H1L1 (complete antibody)
B3 had an EC50 in assay [1] of 0.262 µg/mL. Besides, the binding result in assay [5] is given as “no binding (tested: 50 nM)”. In assay [2], this molecule showed a Kd of 2.29 nM, a Response of 0.612, a koff of 0.000862 s⁻¹ and a kon of 377000 M⁻¹ s⁻¹. Moreover, in assay [6], the Kd is 1.12 nM, the off-rate (koff) was 0.00549 s⁻¹ and the kon was found to be 4.91e+06 M⁻¹ s⁻¹.

B4: humanized antibody hz27H4H1L3 (antibody, V domains shown)
VH: EVQLVQSGAEVKKPGASVKVSCKASGYTFTGYHMHWVRQAPGQRLEWMGRINPYNGAASHNQKFKDRVTITRDTSASTAYMELSSLRSEDTAVYYCARGWDYDGGYYAMDYWGQGTLVTVSS
VL: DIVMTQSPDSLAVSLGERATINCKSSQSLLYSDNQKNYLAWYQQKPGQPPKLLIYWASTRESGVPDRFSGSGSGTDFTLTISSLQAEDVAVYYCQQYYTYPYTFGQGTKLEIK
notes: Heavy chain variable region hz27H4H1 with light chain variable region hz27H4L3
For the molecule B4, in assay [2], the Kd was determined as 2.49 nM, the Response is 0.722, the koff was found to be 0.00109 s⁻¹ and the kon was 438000 M⁻¹ s⁻¹.

B5: 23D7-scFv-hFc (Fc fusion)
scFv: QIVLTQSPAIMSASPGEKVTMTCSASSSVSYIYWYQQKPGSSPGLLIYDTSNLASGVPVRFSGSGSGTSYSLTISRMEAEDAATYYCQQWSSFPPTFGAGTKLELKGGGGSGGGGSGGGGSQVQLQQPGSDLVRPGASVKLSCKASGYTFTRYWMHWVKQRPGHGLEWIGYIYPGSGTSNYDEKFKSKATLTVDTSSSTAYMQLSSLTSEDSAVYYCTREARYTMDYWGQGTSVTVSS
notes: VL-(G4S)3-VH structure with C-terminal human IgG1 Fc; also called Anti-CLL1 scFv-hIgG1; not shown: human IgG1 Fc fused at the C-terminus
For B5, in assay [5], the binding result is given as “no binding (tested: 50 nM)”. Also, in assay [6], the dissociation constant Kd was 110 nM, the koff is 0.0322 s⁻¹ and the kon came to 293000 M⁻¹ s⁻¹.

B6: chimeric antibody ch19C1 (antibody, V domains shown)
VH: QVQLQQSGAELMKPGASVKISCKATGYTFSSYWIEWVKQRPGHGLEWIGEIFPGSGSIKYNEKFKGKATFTADTSSNTAYMQLSSLTSEDSAVHYCARGGTYNDYSLFDYWGQGTTLTVSS
VL: QIVLTQSPAIMSASPGEKVTMTCSASSSVSYMYWYQQKPGSSPRLLIFDTSNLASGVPVRFSGSGSGTSYSLTISRMEAEDAATYYCQQWSSYPLTFGAGTKLELK
Regarding B6, in assay [3], the Kd came to 10.9 nM, the Response came out at 0.619, the off-rate constant (koff) was found to be 0.00197 s⁻¹ and the kon turned out to be 180000 M⁻¹ s⁻¹. In addition, in assay [4], the “MFI at 0.01ug/ml” value stood at 4610, the “MFI at 0.1ug/ml” value stood at 35900 and the “MFI at 1ug/ml” value is 163000.

B7: chimeric antibody ch23D7 (antibody, V domains shown)
VH: QVQLQQPGSDLVRPGASVKLSCKASGYTFTRYWMHWVKQRPGHGLEWIGYIYPGSGTSNYDEKFKSKATLTVDTSSSTAYMQLSSLTSEDSAVYYCTREARYTMDYWGQGTSVTVSS
VL: QIVLTQSPAIMSASPGEKVTMTCSASSSVSYIYWYQQKPGSSPGLLIYDTSNLASGVPVRFSGSGSGTSYSLTISRMEAEDAATYYCQQWSSFPPTFGAGTKLELK
Regarding B7, in assay [3], the Kd was 2.19 nM, the Response was found to be 0.654, the koff was found to be 0.000284 s⁻¹ and the kon was 130000 M⁻¹ s⁻¹. For the same molecule, in assay [4], the “MFI at 0.01ug/ml” value amounted to 4690, the “MFI at 0.1ug/ml” value is 34600 and the “MFI at 1ug/ml” value worked out at 151000.

B8: 27H4-scFv-hFc (Fc fusion)
scFv: DIVMSQSPSSLAVSVGEKVTMSCKSSQSLLYSDNQKNYLAWYQQKPGQSPKLLIYWASTRESGVPDRFTGSGSGTDFTLTISSVKAEDLAVYYCQQYYTYPYTFGGGTKLEIKGGGGSGGGGSGGGGSEVQLQQSGPELVKPGASVKISCKASGYSFTGYHMHWVKQSHVKSLEWIGRINPYNGAASHNQKFKDKATLTVDKSSSTAYMELHSLTSEDSAVYYCARGWDYDGGYYAMDYWGQGTSVTVSS
notes: as for B5
As to B8, the binding result in assay [5] is “no binding (tested: 50 nM)”. In addition, in assay [6], the Kd is 3.06 nM, the koff is 0.0126 s⁻¹ and the kon was 4.11e+06 M⁻¹ s⁻¹.

B9: 19C1-scFv-hFc (Fc fusion)
scFv: QIVLTQSPAIMSASPGEKVTMTCSASSSVSYMYWYQQKPGSSPRLLIFDTSNLASGVPVRFSGSGSGTSYSLTISRMEAEDAATYYCQQWSSYPLTFGAGTKLELKGGGGSGGGGSGGGGSQVQLQQSGAELMKPGASVKISCKATGYTFSSYWIEWVKQRPGHGLEWIGEIFPGSGSIKYNEKFKGKATFTADTSSNTAYMQLSSLTSEDSAVHYCARGGTYNDYSLFDYWGQGTTLTVSS
notes: as for B5
On to B9, for which the binding result in assay [5] is “no binding (tested: 50 nM)”. Moreover, in assay [6], the Kd came out at 5.75 nM, the koff was determined as 0.00509 s⁻¹ and the kon came out at 886000 M⁻¹ s⁻¹.
